Reference: patent EP2058006A1

Experiments:
[1] = target: CC-chemokine receptor CCR5 on the cell surface (UniProt P51681)
[2] = target: CC-chemokine receptor CCR5 on the cell surface (UniProt P51681); assay: flow cytometry on PHA/IL-2-stimulated PBMC
[3] = target: CC-chemokine receptor CCR5 on the cell surface (UniProt P51681); assay: cell-based or functional assay
[4] = target: CC-chemokine receptor CCR5 on the cell surface (UniProt P51681); assay: flow cytometry on L1.2-CCR5+ cells, saturating mAb, PE anti-mouse IgG
[5] = target: CC-chemokine receptor CCR5 on the cell surface (UniProt P51681); assay: flow cytometry on PHA/IL-2-stimulated PBMC, mean fluorescence intensity

Chain of UniProt P51681 (P51681 whole entry): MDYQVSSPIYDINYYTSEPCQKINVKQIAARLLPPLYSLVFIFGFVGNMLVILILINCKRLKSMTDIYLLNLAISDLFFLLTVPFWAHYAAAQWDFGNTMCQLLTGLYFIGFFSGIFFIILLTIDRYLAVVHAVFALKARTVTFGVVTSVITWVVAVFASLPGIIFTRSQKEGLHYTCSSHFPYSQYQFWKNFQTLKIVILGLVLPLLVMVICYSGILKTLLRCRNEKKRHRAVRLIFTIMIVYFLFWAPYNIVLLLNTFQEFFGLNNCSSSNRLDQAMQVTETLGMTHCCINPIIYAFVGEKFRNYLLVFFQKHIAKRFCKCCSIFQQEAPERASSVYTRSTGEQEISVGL

Substance | IC50 [1] [µg/mL] | % of PBMC stained [2] [%] | IC50, inhibition of JR-FL entry (luciferase reporter virus, U87MG-CD4+CCR5+ cells) [3] [µg/mL] | IC50, inhibition of cell-cell fusion (RET assay, PM1 and HeLa-EnvJR-FL+ cells) [3] [µg/mL] | K (equal to the IC50), inhibition of cell-cell fusion, median effect fit (RET assay) [3] [µg/mL] | % of L1.2-CCR5+ cells stained [4] [%] | fold difference in m.f.i. against PA9 [5] [fold] | IC50 for inhibition of RANTES-induced calcium influx in L1.2-CCR5+ cells [3] [µg/mL] | ratio of the PA14 IC50 to the 2D7 IC50, RANTES-induced calcium influx [3] [fold]
anti-CCR5 mAb 2D7 (Pharmingen) (antibody) | 1.38 | > 20 | 0.026 | 1.6 | 0.36 | > 90 | – | – | –
anti-CCR5 monoclonal antibody PA14 (ATCC Accession No. HB-12610) | 1.58 | > 20 | 0.024 | 1.7 | – | > 90 | 7 | 50 | 8
